The record followed here is publication PMC13486833 (2026).

Test [1] addresses T1, RAGE-Fc chimera protein (UniProt Q15109 23-342). As to the kind of experiment: BLI; kinetics. On the technique in general: In BLI a coated tip is dipped into the sample, and binding shifts an interference pattern.
Test [2] deals with T1, RAGE-Fc chimera protein. Description: BLI.
For test [3], the target named is T1, RAGE-Fc chimera protein. Description: ELISA. (In general: ELISA stands for enzyme-linked immunosorbent assay.)
Test [4] has as its target T1, RAGE-Fc chimera protein. As to the kind of experiment: BLI; saturation.

T1 sequence (Q15109 23-342, change not shown): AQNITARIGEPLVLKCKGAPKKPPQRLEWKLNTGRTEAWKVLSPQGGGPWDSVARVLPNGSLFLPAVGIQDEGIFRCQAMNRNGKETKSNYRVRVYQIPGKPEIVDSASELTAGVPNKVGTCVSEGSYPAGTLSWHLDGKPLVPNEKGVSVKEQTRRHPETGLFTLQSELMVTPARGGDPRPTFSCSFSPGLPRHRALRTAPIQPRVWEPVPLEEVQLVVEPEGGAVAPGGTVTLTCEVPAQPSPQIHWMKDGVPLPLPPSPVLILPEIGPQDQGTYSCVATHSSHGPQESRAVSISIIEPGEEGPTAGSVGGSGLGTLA

B1: dBB12L (FR-HMGB1 89–174::89–174) (other)
chain: KDPNAPKRPPSAFFLFCSEYRPKIKGEHPGLSIGDVAKKLGEMWNNTAADDKQPYEKKAAKLKEKYEKDIAAYRAKGKPDAAKKGVKDPNAPKRPPSAFFLFCSEYRPKIKGEHPGLSIGDVAKKLGEMWNNTAADDKQPYEKKAAKLKEKYEKDIAAYRAKGKPDAAKKGV
modifications: fully reduced Cys105 (printed numbering) in both copies; printed n = entry n+1 (C22/C44/C105 = C23/C45/C106 in P09429); direct tandem fusion, with native flanks acting as the linker
As a reminder, the Kd is the concentration at which binding is half-saturated. Higher therefore signals weaker binding. B1: binding in the test with RAGE-Fc chimera protein [1] was characterised by a dissociation constant (Kd) of 1300 nM.

B2: DS-HMGB1 1–184 (domain or fragment)
chain: GKGDPKKPRGKMSSYAFFVQTCREEHKKKHPDASVNFSEFSKKCSERWKTMSAKEKGKFEDMAKADKARYEREMKTYIPPKGETKKKFKDPNAPKRPPSAFFLFCSEYRPKIKGEHPGLSIGDVAKKLGEMWNNTAADDKQPYEKKAAKLKEKYEKDIAAYRAKGKPDAAKKGVVKAEKSKKKK
modifications: disulfide bond between C22 and C44
In general, koff refers to the rate constant with which the complex falls apart. Lower therefore signals slow dissociation. Take B2: the koff with RAGE-Fc chimera protein [2] came out at 0.067 s⁻¹. The dissociation constant Kd in the test with RAGE-Fc chimera protein [3] amounted to 33.9 nM; with RAGE-Fc chimera protein [1], 200 nM; with RAGE-Fc chimera protein [4], 500 nM.

B3: 3S-HMGB1 1–214 (natural protein)
chain: GKGDPKKPRGKMSSYAFFVQTSREEHKKKHPDASVNFSEFSKKSSERWKTMSAKEKGKFEDMAKADKARYEREMKTYIPPKGETKKKFKDPNAPKRPPSAFFLFSSEYRPKIKGEHPGLSIGDVAKKLGEMWNNTAADDKQPYEKKAAKLKEKYEKDIAAYRAKGKPDAAKKGVVKAEKSKKKKEEEEDEEDEEDEEEEEDEEDEDEEEDDDDE
For B3, in the test with RAGE-Fc chimera protein [2], the koff turned out to be 0.015 s⁻¹. Moreover, the values for the Kd with RAGE-Fc chimera protein [3], with RAGE-Fc chimera protein [1] and with RAGE-Fc chimera protein [4] were 7.22 nM, 900 nM and 3000 nM, respectively.

B4: DS-HMGB1 1–164 (domain or fragment)
chain: GKGDPKKPRGKMSSYAFFVQTCREEHKKKHPDASVNFSEFSKKCSERWKTMSAKEKGKFEDMAKADKARYEREMKTYIPPKGETKKKFKDPNAPKRPPSAFFLFCSEYRPKIKGEHPGLSIGDVAKKLGEMWNNTAADDKQPYEKKAAKLKEKYEKDIAAYRAK
modifications: disulfide bond between C22 and C44
For the molecule B4, in the test with RAGE-Fc chimera protein [2], the dissociation rate constant (koff) was 0.152 s⁻¹. The Kd amounted to 900 nM with RAGE-Fc chimera protein [1] and 3100 nM in the test with RAGE-Fc chimera protein [4].

B5: DS Box A 1-88 (protein)
chain: GKGDPKKPRGKMSSYAFFVQTCREEHKKKHPDASVNFSEFSKKCSERWKTMSAKEKGKFEDMAKADKARYEREMKTYIPPKGETKKKF
modifications: intramolecular disulfide Cys22-Cys44 in paper numbering (UniProt Cys23-Cys45); paper numbering omits the initiator Met (offset +1: paper Pro8-Ile78 = UniProt 9-79); any initiator Met or tag remnant left out
B5 had a koff in the test with RAGE-Fc chimera protein [2] of 0.439 s⁻¹. In addition, the Kd in the test with RAGE-Fc chimera protein [1] stood at 15600 nM; with RAGE-Fc chimera protein [4] it was 53400 nM.

B6: FR-HMGB1 1–214 (natural protein)
chain: MGKGDPKKPRGKMSSYAFFVQTCREEHKKKHPDASVNFSEFSKKCSERWKTMSAKEKGKFEDMAKADKARYEREMKTYIPPKGETKKKFKDPNAPKRPPSAFFLFCSEYRPKIKGEHPGLSIGDVAKKLGEMWNNTAADDKQPYEKKAAKLKEKYEKDIAAYRAKGKPDAAKKGVVKAEKSKKKKEEEEDEEDEEDEEEEEDEEDEDEEEDDDDE
As for B6, in the test with RAGE-Fc chimera protein [2], the koff is 0.041 s⁻¹. The dissociation constant Kd with RAGE-Fc chimera protein [3] was found to be 86.1 nM; with RAGE-Fc chimera protein [1] it was 800 nM; with RAGE-Fc chimera protein [4] it was 2300 nM.

B7: DS-HMGB1 1–214 (natural protein)
chain: B6 chain
modifications: disulfide bond between C22 and C44
With B7, the koff in the test with RAGE-Fc chimera protein [2] was 0.043 s⁻¹. The Kd with RAGE-Fc chimera protein [3] came to 4.35 nM; with RAGE-Fc chimera protein [1], 200 nM; with RAGE-Fc chimera protein [4], 1300 nM.
